The results in this text go back to the DeepSol protein solubility set.

The nature of this data set: soluble on expression in E. coli; label from the status in PepcDB or PDB records.
As to “MGSDKIHHHHHHMKYGIVGYSGRMGQEIQKVFSEKGHELVLKVDVNGVEELDSPDVVIDFSSPEALPKTVDLCKKYRAGLVLGTTALKEEHLQMLRELSKEVPVVQAYNFSIGINVLKRFLSELVKVLEDWDVEIVETHHRFKKDAPSGTAILLESALGKSVPIHSLRVGGVPGDHVVVFGNIGETIEIKHRAISRTVFAIGALKAAEFLVGKDPGMYSFEEVIFGGE”, the “soluble on expression in E. coli” value was “soluble”. The entry for “MSLEKSSRINGGKMNREEVKDSVLLGDSLEIMRRIDDCIYDLIFLDPPYYLQMTPKRLKRWNNRSVPQTVREYWDAFPSFEAYDSFISSVLKEAKRLMSDTSTIWAIGTYHNIFRIGKIMQDMGFWILNDVVWIKTNPMPNWLGVRFTNSTETLIWATKGKEQKNYTYNRNLAKEFGLGKTANNVWVMKTSRGNERVRDENRKSVHPAQKPLELMKRIILSSTKEGDLILDPFAGVGTTGVAASMLGRNFTLIEKDPVYYRAMLSRFSRFGIRYTEKIEGHHHHHH” is “not soluble”; for “MGSDKIHHHHHHMALEDLVILLVEDDPVFRSIVAAFLTNRGATVIEADDGQQGLERFSQHDFDIVLADLSMPILGGLDMLKQMIKRKPDTLSIVISGNQVMADVVEALRVGASDYLVKPVNDLCLIENAIRQCVGGSSQQDVQLEDLDELSYQELEEHLNLLEQNAEAAKSVQQQLFPPSVIDYPKAKIDYSLFKHDEVSAYFIDSVNVGERYLIMYMAHFHPQDNRCAFASVLLKSFVNQKLKQFRNDNTETVIEPFNMLSYLNERMSKSGLDIYVDIVYAVVELTHYRASIAQAGKGLRCYIRNEEGLMPLAMPDALQLGILEWGQPSTQFRNLMPGESLCVASSNIEHRDMLLNDEFVGLSYSPEVAPGGYVQMSF” it is “not soluble”. The same measure for “MFISDKSRPTDFYKDDHHNSSTTSTTRDMMIDVLTTTNESVDLQSHHHHNHHNHHLHQSQPQQQILLGESSGEDHEVKAPKKRAETWVQDETRSLIMFRRGMDGLFNTSKSNKHLWEQISSKMREKGFDRSPTMCTDKWRNLLKEFKKAKHHDRGNGSAKMSYYKEIEDILRERSKKVTPPQYNKSPNTPPTSAKVDSFMQFTDKGFDDTSISFGSVEANGRPALNLERRLDHDGHPLAITTAVDAVAANGVTPWNWRETPGNGDDSHGQPFGGRVITVKFGDYTRRIGVDGSAEAIKEVIRSAFGLRTRRAFWLEDEDQIIRCLDRDMPLGNYLLRLDDVCKTHLAGLAIRVCHYDESNQLPVHSEEKIFYTEEDYREFLARQGWSSLQVDGFRNIENMDDLQPGAVYRGVR”: “soluble”; for “MSEDLNAGPKVNREFKNSVFTLLFNEVEAIRDIAGAVGAMLGKEINPDTPIKKTTLQNALLGGKLNDLSFVLDDKLIVLIEHQSTINKNMPLRMLHYISEIYNRLYDKKDLYKREKISIPKPVFIVLYNGEEDIKDFEEYLLSDLFKDFDISKEPPCLELRVQVRNINKGHSAEIVKQSPLLRDYVAFVEEVREANREEGASPELAMEKAVENCIKKGILTIFLTRHKEEVIKMLVAEWDYELDLEVAKEEAHEKGLSQGRDEERRKNIKDLYRIGVGIETIAKAFDLSERQVKDILGL”: “not soluble”. The same measure for “MSLNLRESFISKFAASFVKPRFEIWFAAVLIPENDQAFWVRYSTLNPRNNRDLFPMGTLWVSLFDRKNPKNHRTTTQSFPYEEVLIKEHAIEFPEASVGPDHMSGKIQTSMSEDLAWDLEFRHKLEPTGHLPRWLEKTPINHIWGTNRVSELFWTFVPKFDDDPDDWSMEIVTVRPQPFTPTLTFVTLLKRGIPIHQHSIFRSLRSSTKIEYPKLHFKTRLDDYEISVESEMDKDQIAGYIYRDPDGSPRYIEQSDIGNVKCVIRHRRKETVLNAKQAAGVEFHGLRPWRKDHEYLDPYQTEGHHHHHH”: “not soluble”. As to “MGSDKIHHHHHHMNLYQTKLFTTLQKEYKNKYGVDISQFVKLTNSSINFDKFEEEQLTLKQKNVIKSIKKNNEKKIILSGGIASGKTYLACYLFLKSLIEIKKLYSSDTNNFIIGNSQRSVEVNVLGQFEKLCKLLKIPYIPRHTNNSYILIDSLRINLYGGDKASDFERFRGSNSALIFVNEATTLHKQTLEEVLKRLRCGQETIIFDTNPDHPEHYFKTDYIDNIATFKTYKFTTYDNVLLSKGFVETQEKLYKDIPSYKARVLLGEWIASTDSIFTQINITDDYVFTSPIAYLDPAFSVGGDNTALCVMERVDDKYYAFVFQDQRPANDPYIMNMVKTVIENFNVHTLYLEDRDNTKGAGGLTREYILLRSNISQYFRIVPVKPKSNKFSRITTLITPFTYKKLYITKYSSSSVFNDIYSYKGDNKTHDDALDAISAAYLMLSLGYRERSVHFGNQRFL”, the “soluble on expression in E. coli” value was “not soluble”. The entry for “MGSDKIHHHHHHMILKYAPLNLDQKFSLVYFRMTHDNCWSKITEKHDVMIHTLKLLPNKDRDIIYGLFELKVKGKRTLRDFLRDLNRSGTIRKLGGLSISELKSNIYIIDLYETYSGMIQGKLNDYNSIFDFDLVKYGVEEKYAVIPSENVNELKNELQSMGQLFDFRAKYFPNFYEVLTPYFNFTPIEMQIIIEAYNLGYYDIPRRAGIREIAEYFGLSKSTVQEYIRNAESKTMSNMKLFRMLNELKRL” is “not soluble”; for “MNILYDERLDGPLPQVDKDGLLAELRLRLPDLELLHAAEDLRPYECDGLSAYRCTPLLVALPERIEQVQGLLALCHRLKVPVVARGAGTGLSGGALPLENGVLLVMARFRRILEIDPLGRFARVQPGVRNLAISQAAAPHGLYYAPDPSSQIACSIGGNVAENAGGVHCLKYGLTVHNLLQVDIVTLEGERLSLGSSALDSAGFDLLALFTGSEGLLGVVVEVTVRLLPRPPVAKVLLASFDDVESAGRAVADLIGAGIVPAGLEMMDNLSIRAAEDFIHAGYPVDAAAILLCELDGVEADVHEDCERVRELFEAAGATSVRQAQDEAERQRFWAGRKNAFPAVGRISPDYYCMDGSIPRRELPRVLHGIAELSREYGLRVANVFHAGDGNMHPLILFDANLAGELERAEALGGRILELCVAVGGSITGEHGVGREKINQMCAQFNADELTLFHAVKAAFDPAGLLNPGKNVPTLHRCAEFGAMHVHHGRLPFPELERF” it is “not soluble”. The same measure for “MSLKTELTLLEQTLTLHRFPKRNNETLQAWDAGDEYLIQHVEQLALPESSHIVIINDHFGTLSCWFSQKHKVSMMSDSYIAHQATQANLQQNQRPPVQLLTTLDPVPNDASVVLLQLPKSNRHLVWILSQLRKALSPNIPIIAVNKAKEIHTSTLNLFEKHLGPTTTSLAWKKHRLVFSSATVNPANEVNPECGWSIEPYAITLTNLPNVYSGESLDLGSRFILEHLPADPTLEDFIDLGCGNGVLSVRLGQLNPQAKITCVDESFMAIASAQKNLHDNLGKRDIHCIANNCLDGFPAHSSSMIVCNPPFHQQQTITDHIAWQMFCDSKHVLKKGGKLWVIGNRHLGYDVKLARLFGKSHVRVIANNSKFVILQAIKSEGHHHHHH”: “soluble”; for “MAGPSWRHIRAEGLDCSYTVLFGKAEADEIFQELEKEVEYFTGALARVQVFGKWHSVPRKQATYGDAGLTYTFSGLTLSPKPWIPVLERIRDHVSGVTGQTFNFVLINRYKDGCDHIGEHRDDERELAPGSPIASVSFGACRDFVFRHKDSRGKSPSRRVAVVRLPLAHGSLLMMNHPTNTHWYHSLPVRKKVLAPRVNLTFRKILLTKKLEHHHHHH”: “soluble”; for “MGSDKIHHHHHHMATLSDFNRDGKRYVALNGVGDDQDQSILFDHVSSYDLIRSFVDANCNWSRVLESRKNQWKPSILPEADGLAYNPPGKPEDIRNCTVSAFGNTHKTINNSLSSQKDVDWFYKGNGTTVIGTDHPLISNLNSYGCGIEIEYAAVFMINAAGDPVYIGYTIANDFSDAEMRRRMPSLANLSKLATTSFGRFLFLAPIPTKTEIACTILRHGKPAWRVNGQLGSEAMKYSFSYLNELLFQNQSIKGDAYTIHYMLLGASISSNKAEFDMKHSDIILVHDEDNNVILRNEYIDEAIVCACC”: “not soluble”. Consider “MGSDKIHHHHHHMANVVLFGLQDYAELAHYYLEHDSPHQVAAFCVDRQYIPDSGTFKNLPVVAFEDVAHTHPPGDFSFFAPMSPKHMNRDRERIFNAIKAHGYTLISYVSSRATKFDNEIGENCFILEDNTLQPFTRIGDNVVLWSGNHIGHHGRIGDHVTMTSHVVMSGHCDIGAYSFVGVNATLRDGVTIGEGTFVAMASAITKNTEPWSVYRGNPAVKLTMPSTEVKF”, for which the “soluble on expression in E. coli” value was “not soluble”.

“MKDLLQAQQKLIPDLIDKMYKRFSILTTISKNQPVGRRSLSEHMDMTERVLRSETDMLKKQDLIKVKPTGMEITAEGEQLISQLKGYFDIYADDNRLSEGIKNKFQIKEVHVVPGDADNSQSVKTELGRQAGQLLEGILQEDAIVAVTGGSTMACVSEAIHLLPYNVFFVPARGGLGENVVFQANTIAASMAQQAGGYYTTMYVPDNVSETTYNTLLLEPSVINTLDKIKQANVILHGIGDALKMAHRRQSPEKVIEQLQHHQAVGEAFGYYFDTQGQIVHKVKTIGLQLEDLESKDFIFAVAGGKSKGEAIKAYLTIAPKNTVLITDEAAAKIILE”: the “soluble on expression in E. coli” value is recorded as “not soluble”. Consider “MTNDLIQLIDSLMVNIPAGEVVLRDDRIKKEWLVQIQPFLLAKYAVTMELYDAITNSTLNNFDKNHKPVVNISWNDAIAFCNVLSKKAGLKEYYSISDGGQIVKCNLDSNGYRLPSEAEWQYACKASTTGYTYGKLHDIAWYNENSNGEIHDVGQKEPNAWGLYDMLGNVWEWCYDLYDETVYGSYRIFRGGSWAETARGCGATCRRRSHPTFHIDDLGFRLARSILEHHHHHH”, for which the “soluble on expression in E. coli” value was “soluble”. The entry for “MAASRDIFAPDFRRRPYWWEGYEPPECGEDTLPASADVAIVGGGYTGVCCALALREAGIEAVVLEAGRPGEGASTRSGGQVSGGVNVQKKALAAVGESAGQRAERLAARLRDAAASMAYVESLIERYAIECGWHRTGRLTTMWVPAHYQSWQARLDQLNACTGSQARMIPREELAAEIGSSVYHGAALIEHAGHLQPAQLYGGMLRAARDAGARVLGRTPVERIERRAGGYDVHTARGTVRAGQVVIATNGYTGANLGGLKRRIVPVCTHMITTEALPPDLAASLLPTNRAVSESRRVVNHYRLSPDGRRLLFGGRARFVPTDEATTARLLYRAMLKRFPQLAGTRITHSWGGNVAMTLDSMPHIGGADGLHYALGCNGSGVAMMSYLGHCVGRKIATQSGEPINAFDMGEIPGHPFYFGNPWFLFAIGSWYQARDAYDHWRARLEHHHHHH” is “not soluble”; for “MYREFYGLTEKPFSKTPDPRYLFLSRGHREALARLQYAVEERELALLTGDIGCGKTTISRALMDAVGNDGCFCFIVNPRLSAVEFLRTVARSLGIAEPAAAKDELLRQLTEAVYRLEGEKRCPVIIIDEAQLIPDQEVFDEIRLLTNFQLDDRNLMSVILMGQPELRQILSEPAHEALRQRIAMHYHLQPLSLEETLEYVDFRVEVAGGPQGLFSPDAIRRIYELSGGVPRKINILATNALLVGFGKDSAWIDASLVEELRDEASLYLEHHHHHH” it is “not soluble”; for “MKIQLHKWPKSVIDRLDLVFLDAPFPCQGKSDVEGIFDPPYYEWFQFNKEFTEYTNFEKCLEYLEDRMIKLGPFDGLIGFSQGAILSGGLPGLQAKGIAFQKVPKIKFVIIIGGAKLKSAKLAENAYSSSLETLSLHFLGETDFLKPYGTQLIESYKNPVVVHHPKGHTVPRLDEKSLEKVTAFIDTLEHLVMEEDKNGEENTSKPTK” it is “soluble”.
